The values below are quoted from earlier work in article PMC5830908.

Where two headings read alike, the source gives them in different places.

The target of data set [1] is K-Ras (Homo sapiens) (UniProt P01116).
The target is the same in data set [2]. The source holds these as a separate data set.

With KRpep-2, the Kd with K-Ras (Homo sapiens) [1] is 51 nM; with K-Ras (Homo sapiens) [2] it was 700 nM.
